Laboratory results: the supplement of paper PMC10126150
± gives the standard deviation of the averaged measurements.

Test system: ATP
Test: switch fluorescence ratio, 500 uM ATP over buffer (Cy3 cluster intensity, sum of 5 cycles each) (fold (ratio)); higher = stronger signal-on switching upon ATP binding; sequences stand for … in TCGTCGGCAGCGTCAGATGTGTATAAGAGACAGTTTTTTTTTTTTTTTTTTTTTTTTT…TC
Settings: aptamer strand: ATP DNA aptamer (quencher-CACCTGGGGGAGTATTGCGGAGGAAGG + anchor), 100 nM annealed; ATP concentration: 500 uM
Procedure, shortened: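 Cy3-labelled switching-strand clusters on a modified Illumina MiSeq flow-cell were annealed to 100 nM quencher-labelled ATP aptamer and imaged first in selection buffer, then after 15 min with 500 uM ATP at 22 °C. NaOH stripping and re-annealing separated each of five buffer/ATP cycles, and clusters outside 100-1000 RFU were excluded. The fluorescence ratio sums target-cycle Cy3 intensity over buffer-cycle Cy3 intensity per cluster and averages it per switch-domain sequence.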
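Also: ATP exposure 15 min at 22 °C before imaging.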

Sequence	switch fluorescence ratio
CCAATGAGTG	1.01 ± 0.023
GGTTACCTTT	0.996 ± 0.042
TGGGGCTCAG	0.986 ± 0.027
GAGATTAAGA	0.973 ± 0.1
TTACTCGCAT	2.3 ± 1.2
GCCCTATCAT	0.981 ± 0.027
GATTTTACGT	1.021 ± 0.0067
GCCTAATTTT	0.984 ± 0.021
CGGGGAGGTC	1.07 ± 0.072
TACCTATTTT	1.035 ± 0.0014
GGGCGGGGCT	0.994 ± 0.016
AACTGAGGGA	1.022 ± 0.0069
GGAAATGGGC	0.97 ± 0.042
CAGGGAAAAG	0.991 ± 0.032
GATTGCTCGT	0.975 ± 0.028
TGCTGACGGT	0.993 ± 0.029
CTGATGGGCT	0.972 ± 0.029
TGTCACAGGG	1.063 ± 0.007
GGGGCATTGG	0.99 ± 0.011
GGATGGTGCT	0.948 ± 0.027
GTTGGTATGA	0.989 ± 0.017
GGGGGGTATA	1 ± 0.048
GGGATATGGT	0.986 ± 0.019
TAAGTTGGGG	0.995 ± 0.02
TTTTGCCTTC	1.09 ± 0.027

Sequence	switch fluorescence ratio
TTAGAGGCAG	0.967 ± 0.025
CTCTGGGGGA	1.05 ± 0.068
TAACACGGTA	1.16 ± 0.0035
TTATAGGCAG	0.987 ± 0.01
ACGAGACAGC	1.191 ± 3.6e-05
AAGGCGTAG	0.984 ± 0.1
GTGTTCCGTG	1.01 ± 0.015
ATGTCTAAAA	0.9887 ± 0.0065
GGGTTGGGAC	1.01 ± 0.051
AAACGGCACG	1.009 ± 0.0032
ATATTGTACG	1.03 ± 0.022
GTAAGGGGGT	0.9731 ± 0.0091
ACAGGAAGAG	1.05 ± 0.038
AAGGGGACTC	0.974 ± 0.04
TTTTGAACAA	1.02 ± 0.039
TGAGATTGTT	1.01 ± 0.028
CAGGTTTGGT	0.984 ± 0.021
GGCATAAGTG	1.016 ± 0.0087
AGGGATATTT	1.01 ± 0.033
GAGTTTAAGG	0.9978 ± 0.009
GGGTGCTGCG	1.01 ± 0.037
GGAGCGAAGT	1.16 ± 0.26
GCTTAAGGGG	0.989 ± 0.029
CTGGGTAATT	1.04 ± 0.059
AAGGTGGTGG	1.04 ± 0.0016

Sequence	switch fluorescence ratio
GTTGGAATTT	0.966 ± 0.023
ACTTTGCATT	1.19 ± 0.038
TTTAACTAGT	1 ± 0.018
AAGGTTGAGG	0.973 ± 0.034
TTTCCAAGAA	1.03 ± 0.025
TTCACGGGGG	1.018 ± 0.0078
TTACGCAACC	2.91 ± 0.58
AGGTAGAAGT	1.03 ± 0.012
GTGATACAAA	0.999 ± 0.022
CAATAGTTGT	0.996 ± 0.029
GAACTGGCGC	1.02 ± 0.096
GATATGGGGA	0.994 ± 0.044
TTTAAGACC	0.979 ± 0.015
CTATAGATTT	0.973 ± 0.02
GAGAGGAGCT	1.01 ± 0.039
GCGAATTGGG	1.02 ± 0.024
CAAATGTTGG	0.983 ± 0.026
CTAATGGAGG	1.01 ± 0.011
TTAGGATAGG	1.005 ± 0.0021
GCTGGGGTAA	1.02 ± 0.021
AACGTAGTTT	1.02 ± 0.029
ATCGGGGGTA	0.982 ± 0.016
GCTTCTACTG	0.988 ± 0.034
TTAGGCGCCC	0.981 ± 0.029
TCGTTCATGA	1 ± 0.061

Sequence	switch fluorescence ratio
TTATAACGTA	1.07 ± 0.044
TAATGCTTGG	1.01 ± 0.031
TTGACGCGTC	1.02 ± 0.018
GGTTAGCGTC	1.03 ± 0.059
CGCGGGAACA	1.022 ± 0.005
CTATAGGTCA	0.981 ± 0.036
GGGGCCATGG	0.9123 ± 0.006
TATTCAGGCA	1.01 ± 0.041
ATGTACTCGC	1.08 ± 0.031
GAAAAGGGTG	0.99 ± 0.051
TGGAGGGGTA	1.05 ± 0.053
ACTGTAAATT	1.086 ± 0.0031
TAAGAGTTGG	0.999 ± 0.018
CCTTTGGGGT	1.69 ± 1.2
TGCTTACCCA	1.03 ± 0.017
GGGATAGACT	0.995 ± 0.035
GGTTAACTTG	0.975 ± 0.034
CAACAGTTTT	1 ± 0.012
GAGAGTGTGT	0.982 ± 0.011
CGAGAGTTTT	0.985 ± 0.032
GATCCTAAGC	0.99 ± 0.014
TGAGTGGGGG	0.982 ± 0.014
AAGTCTTTGG	0.9599 ± 0.0072
TAAGTATTG	1.01 ± 0.017
GGCTATTATT	0.985 ± 0.025

Sequence	switch fluorescence ratio
CGCGTCCGTC	1.03 ± 0.056
GGGCCTGCTT	0.97 ± 0.052
GGCTTTGTAG	0.9956 ± 0.0081
AACGTTAGGT	0.9704 ± 0.0022
ATTCTTAATG	1.01 ± 0.021
GATGCCTTTG	0.994 ± 0.018
AGGAGCGGTG	0.985 ± 0.047
AGTGGCATGT	0.986 ± 0.012
TGTAGGGACG	0.957 ± 0.12
CGGTTTCAGT	0.996 ± 0.023
GAGTTGGGTG	1.01 ± 0.032
GGTATTTAGG	1.02 ± 0.029
CCGCATGCTT	2.76 ± 2
TTGAGTCCTT	1.04 ± 0.022
GCGTTCATAG	0.995 ± 0.023
TGTGGCTTCC	2.25 ± 0.099
TACAGGGGAA	1.09 ± 0.056
ATCGACTTGG	1.016 ± 0.0053
TGTGTCAGGG	1.01 ± 0.022
TAAGAAAGGT	1 ± 0.0053
GCTAATGTGC	1.02 ± 0.018
TCTGTTGTTC	0.993 ± 0.018
ATGGGCGGCG	0.993 ± 0.021
ATGCGGTAGG	1.01 ± 0.016
TTCTCGTGGC	0.96 ± 0.029

Sequence	switch fluorescence ratio
GGTGGGGGCA	0.979 ± 0.029
TCGCTGAGTG	1.08 ± 0.12
TATTTGGTTA	1.024 ± 0.006
TATTTATGCG	1.021 ± 0.0091
CTAGTCGTCG	1.02 ± 0.019
GTTTGTGGGT	0.977 ± 0.011
TTGCAGGAGG	1 ± 0.019
TGCGGCTTCA	1.01 ± 0.016
ATCGGGGGGT	1.01 ± 0.035
CAGATTTGCT	0.983 ± 0.013
TTATGATGAT	1.006 ± 0.01
AGACAGCAGC	1.05 ± 0.011
TGTAATCGTT	0.964 ± 0.07
AGGATTAAAT	0.987 ± 0.026
CACTTTTGTA	1.01 ± 0.012
TTGGGTTCAA	1.4 ± 0.52
ATGTGTTGGG	0.973 ± 0.032
TATTGCTACT	1.0114 ± 6.4e-05
ACACATTTTT	1.011 ± 0.01
AGTTTTGTCG	1.01 ± 0.022
AAGTGCACGG	1 ± 0.036
TCAGTTTAGA	1 ± 0.011
GATTTCAGTG	0.974 ± 0.023
TTCGTTATCT	0.981 ± 0.015
GGGCTGGAAT	1 ± 0.02

Sequence	switch fluorescence ratio
CTAAAAACGG	1.002 ± 0.01
GGGCCAGGGG	1.21 ± 0.067
GATATGGGGT	0.9828 ± 0.0085
ATGCTAATTT	0.9666 ± 0.0015
AGCATTTTCC	1.135 ± 0.0063
TGGTTCTATT	1.02 ± 0.064
AACGTTGGAC	1.1 ± 0.029
TTACTACCGG	1.04 ± 0.012
TGTCGGATTA	0.979 ± 0.011
CGGTTATAAG	0.9679 ± 0.00054
GCTGGGGACG	0.938 ± 0.084
ATTTAAGTTG	0.987 ± 0.015
TTAAGCCCGG	1.04 ± 0.066
GAGGGGGGAA	1.01 ± 0.03
ATAATTGTTC	0.99 ± 0.031
CTGGATAGCG	0.981 ± 0.044
TCATGTCGGT	0.979 ± 0.017
ATTTTAAGAG	1.01 ± 0.02
ATTGTGAGGT	0.992 ± 0.039
TATCATTCGG	1.01 ± 0.043
CTGGGTTAGT	1.03 ± 0.035
CGGTGGACTG	1.07 ± 0.014
CGTTAGCAGA	1.19 ± 0.086
ATGTTAAGGA	0.998 ± 0.012
CAGGGTGGGA	1.02 ± 0.044

Sequence	switch fluorescence ratio
AATTGTGTAT	0.973 ± 0.026
AATAGGGGGT	0.996 ± 0.018
CGTTGGCGGT	1.02 ± 0.043
AGTTTTACAA	1.03 ± 0.012
ATTGCCGTCA	0.998 ± 0.024
GATCATTAGA	1.05 ± 0.061
TATTTATTGG	0.999 ± 0.012
CGTAATTTCT	1.06 ± 0.038
GGTAAGTCTA	0.9832 ± 0.0059
ATTGGGATT	0.966 ± 0.046
TGGTGGTGTC	0.985 ± 0.05
GCGGGGTCAG	0.989 ± 0.025
ACATGGGGGT	1.01 ± 0.014
TAATGGGATA	1.02 ± 0.055
CGAATAGCTT	1.01 ± 0.062
AATTGTGGCT	1 ± 0.025
GTTTTATGCG	1.02 ± 0.035
AAACATAAAG	0.995 ± 0.027
TTGCTCTAAC	0.998 ± 0.022
AATACCAAGA	0.9889 ± 0.0067
TTGGGTAGAT	0.988 ± 0.025
ATACTCGGTA	0.997 ± 0.023
AAGTATAATA	1.01 ± 0.035
GATGGGGGCC	0.998 ± 0.026
AGGCCGGTGA	1.01 ± 0.018
